Measured values taken from the DeepSol protein solubility set.

Test: soluble on expression in E. coli; label from the status in PepcDB or PDB records

Sequence	soluble on expression in E. coli
MSLTNPAPIEAPLPKGVTDFLPEKADKIGYIEGKIRRVFELWGFRRIITPLLEFQDVMAAGLGEDLKERTFRFDDRQTGKLLAIPSDITPQVARIVATRMRGCPLPHRLYYIGRVLRHVELQSGRSRETFQAGVELIGLDSPEADAEMVAMAVEILKGLGFEEFKVDLGHTGFIRGVMAASGLGGDARRRLQEAVGKKDSSAVRAILETEPVADRIKEELAALPRLFGGREVLAEAARVATSDSSRRALDNIAQVLDILDIHGVSDHLTLDLGEIRGLDYHSGLTFEGFVTGIGEAVCSGGRYDNLTQRYGYPAPATGFAFNILALLNALEKRPDVEASKTRDLLIFNLKDDRREALEIAQHLRALGYSTARDIIHRDFNDSLDYARRMNILRMMVIGGDYCAADEAYVVRVADKRGTAVKKADLMRNDFSLNTEGHHHHHH	soluble
MAAVVKSVALAGRPTTPDRVHEVLGRSMLVDGLDIVLDLTRSGGSYLVDAITGRRYLDMFTFVASSALGMNPPALVDDREFHAELMQAALNKPSNSDVYSVAMARFVETFARVLGDPALPHLFFVEGGALAVENALKAAFDWKSRHNQAHGIDPALGTQVLHLRGAFHGRSGYTLSLTNTKPTITARFPKFDWPRIDAPYMRPGLDEPAMAALEAEALRQARAAFETRPHDIACFVAEPIQGEGGDRHFRPEFFAAMRELCDEFDALLIFDEVQTGCGLTGTAWAYQQLDVAPDIVAFGKKTQVCGVMAGRRVDEVADNVFAVPSRLASTWGGNLTDMVRARRILEVIEAEGLFERAVQHGKYLRARLDELAADFPAVVLDPRGRGLMCAFSLPTTADRDELIRQLWQRAVIVLPAGADTVRFRPPLTVSTAEIDAAIAAVRSALPVVT	soluble
DIMVVVDAGHGGKDPGAVGSRGEREKDVVLSIAQLLAKRLKREKGFDVRLVRNDDFFVPLRKRVEFAHKSNADMFISVHADAAPRLTASGASVFALSEGGATSATARFMAQRENGADLLGATSLLNLKDKDPMLAGVILDMSMNATIAASLQLGHTILGSLEGITTLHQKRVEQAGFAVLKSPDVPSILVETGFISNSRDSQRLVTARHQQAVADGLFDGLQRYFQRNPPMDSHLAWMQAQKQEQQA	not soluble
MNTNISGPLISLIVPVYNVKDYLKTCLQSILEQTYKNLEIILVDDGSDDGSSGICDEYARMDQRIKTIHLPHSGVSAARNAGLAAATGELLGFVDSDDWIDHDMYQYLYTLMQEHDADVSACTYLLEQEGRPSKIINNTGKLYVFSRKEIIRALVKNDLVKNYLWAKLFKRKLFDRLSFPVGRVYEDVAVLYKVFYSSQKVVLSCVSKYHYMIHKNESITRGGYDPVKEYHYFLSLYEQDKFIQNAELGGESSVGVLKRGIHLINHTLLCPPSPAFEDIIDETMLKMREYRHITPWQLGPSMSIKRYFMCKHFGFYRMLYRGYRAIFKRKHKLLID	not soluble
MSLSSEHIQNKLALLPDQPGCYLMKDRQGTIIYVGKAKILKNRVRSYFSGTHDSKTQRLVQEIVDFEYIVTSSNVEALLLEINLIKKHDPRFNIRLKDDKTYPFIKITNERHPRLIITRQVKKDKGKYFGPYPNVYAANEVKRILDRLYPLRKCSTLPNKVCLYYHLGQCLAPCVFDVEASKYKEMQDEIVTFLNGGYKTVKNDLMKKMQEAAENMEFEKAGEFRDQINAIETTMEKQKMTMNDFVDRDVFGYAIDKGWMCVQVFFIRQGKLIERDVSQFPFYNDADEDFLTFIGQFYQKANHIPPKEIYLPDDVDSEAVQAVVPDTKIIVPQRGNKKDLVKLAYKNAKIALNEKFMLLERNEERTVGAVERLGEAMGIPTPSRVEAFDNSNIHGTDPVSAMVTFLDGKPSKNDYRKYKIKTVEGPDDYATMREVIRRRYWRVLKEELPMPDLILIDGGKGQIDSAKDVLTNELGLDIPVAGLAKDDKHRTSQLLFGDPLEIVPLERNSQEFYLLQRMQDEVHRFAITFHRQLRSKTGFQSILDGIPGVGPGRKKKLLKHFGSMKKLKEASVEEIKEAGVPLNVAEEVHKHITAFNEGHHHHHH	soluble
MSLTPLTGQDTPALDECVVDAVDVHAFEVPTDGPEGREQDGTLEWDATTLVLVRVHAGGRTGLGYTYGDVSVASFAHSVLGPVVKGRPVSSPPALWELMGARMRNAGRPGVGAMALSAVDVALWDLKARLLGLPLVHLLPAHHDRVPVYGSGGFTNYPLDRLTDQLAGWVRQGIGRVKLKTSRDPEADPRRLTAVRRAVGDGPEVFTDANGALGRKAALYWAHRFHDEWDVRWFEEPVASADLEGLRMLRERGPARLEITAGEYAFTAQDFANLTEGPAVDCLQADVTRCGGVTGVLEVAGLSAARHLDLSAHCAPAVSAHAFCAVRRLRHLEYFHDHVRVERLLFDGVPSPEGGALRPDTSRPGLGLEVRWADAEPYRVRGVRPPREGHHHHHH	soluble
MPDKKREVSLSHRLQEVASFVPKGARLLDVGSDHAYLPIYLLEQGLIDFAVAGEIIKGPYESAVANVSESELSGQIAVRLADGLAALNDNDDIDLITICGMGGRLIADILAAGSDKLNSVKQLILQPNNCEDDLRSWLVANDFMIKAEKMVKDRHKYYEILVVEKGKITLSDKDLRFGPFLRQERSSIFKERWRKELAKLELALTKVPAKKKADNMFLSTKIEQIKEVLYES	not soluble
MSQVQEQHISESQLQYGNGSLMSTVPADLSQSVVDGNGNGSSEDIEATNGSGDGGGLQEQAEAQGEMEDEAYDEAALGSFVPIEKLQVNGITMADVKKLRESGLHTAEAVAYAPRKDLLEIKGISEAKADKLLNEAARLVPMGFVTAADFHMRRSELICLTTGSKNLDTLLGGGVETGSITELFGEFRTGKSQLCHTLAVTCQIPLDIGGGEGKCLYIDTEGTFRPVRLVSIAQRFGLDPDDALNNVAYARAYNADHQLRLLDAAAQMMSESRFSLIVVDSVMALYRTDFSGRGELSARQMHLAKFMRALQRLADQFGVAVVVTNQVVAQVDGGMAFNPDPKKPIGGNIMAYSSTTRLGFKKGKGCQRLCKVVDSPCLPEAECVFAIYEDGVGDPREEDE	soluble
MFRVGILTVSDKGFRGERQDTTHLAIREVLAGGPFEVAAYELVPDEPPMIKKVLRLWADREGLDLILTNGGTGLAPRDRTPEATRELLDREVPGLAELMRLVGLRKTPMAALSRGVAGVRGRTLILNLPGSPKGARESLEAVLPVLPHALSLVTGKPWKEGHHE	soluble
MPKSEPRYLTIYNQLKNQITSGTLTANEQLPTELQLAKAYNVSRITSKRALTELESQGLIYRKQGSGSFVQPTDQPKTNKQLLLVLPFPTDAGLGDYASGVSLAASAHHYQAVTMDSASFFNLSAKEIHENYAGVIYLPQDLYQEAERIYQLKLAQVPVVILDKTLPALELPVVTADNFSGGQIATDHLLQLGHQQILFYAQRNNTVLPSSVYERYFGYLTALNQQHVTPVTALADLPTLNQFSTNDWLTYLADHQITAIVVENDLTAIKLMNTLRKVDPKIWQRLSIVGFDNIQAASLTYPSLTTVAQDFKGMGTKAVSLLLKTPVQPTTVRLPVQLIQRDSTQPFQPISKEK	not soluble
MTDTAEKYEAVVVGCGPGGAAAAATLARNGVETLVLERGVDAGSKNVSGGLIYAEESAPYTIDGLFPDFREEAAERPVTENLIHNIAGDRVKSFDIGDLHHHDTAWADAVLRRKMDSWLAQQVHERTRETGGGLLTEVHVTGLLRERGEIVGVTTEELDPIKADIIVAADGVNSELARDAGLMDWDEPEEWFQGVKAVVDMEPEVINDRFDVASDDGAAHLFSGDLFDGVRGGGFLYTNESSLSIGTVFHLDSIAEERAEPHELLDSLLTHPLMAQWLGDEYDEREYSAKLVPDSKKAAHPSPHEDRLVLVGDAAGQMQAQGPIIKGMNHAVTAGALAAEAFADARARGDPSQAGKLYEKKLHDEGVMDKLRPTGYRVFGQLGELGPVDNLSNAIAESAVGRFGVRAAAGLLERAYSSPRLVSMIPDTKLPYVTLPTVIAEELGEPVTDENTVSPPDLGDRIGDLTYDVGDPHIELVDKSFEASGTAVTACPVSAEDFGGGCYRDEMVQTNGSEEHLVSLDTQPCVECGTCAIVADTEWEHPAGGKGVEFNQGLEHHHHHH	not soluble
MTHELISLPYAVDALAPVISKETVEFHHGKHLKTYVDNLNKLIIGTEFENADLNTIVQKSEGGIFNNAGQTLNHNLYFTQFRPGKGGAPKGKLGEAIDKQFGSFEKFKEEFNTAGTTLFGSGWVWLASDANGKLSIEKEPNAGNPVRKGLNPLLGFDVWEHAYYLTYQNRRADHLKDLWSIVDWDIVESRY	soluble
MAQLMKRGFSTSAALAKAQLVKTPIQVHGVEGRYAAALYSAGHKQNKLDQISTDLNNVRSVYKDNKKFQEFVLDPTLKANKKKTAIEAISTKLGLTKETGNFLGLLAENGRLNKLESVVSSFESIMRAHRGELFVQVTSAEELSSSNQKALSDALSKIGKSGQKLTVTYAVKPSILGGLVVTIGDKYVDLSIASRVKKYKDALATAI	not soluble
MGSDKIHHHHHHMMILIQSRGKMKCKELSEELEVSERQIKSYKMYLEQAGIFINSTPGIYGGYEIDKCNSISLIKLLDSEVSILDMINSQLEYNNDIYKNEFNNIVEKIKAVLNTGEKSDTYMDYFTVQAQRNCDYESEKNKCNEIIRAYTTKHKFWIEYYSLNSGNSERIVHPYGLFNYKSDTYMVAFCEKRFKFIDFKLCRIKDYKVLEEKYNVDKSFSWDEYSKNSIGIYKGEEINVVIKISHPFSTIIKEKVWVNNQQIIEYDDKSIMFKAKMRGYEEIKSWILSMGAYVEVVEPDRLRNDILSEIEKMKKIY	not soluble
MGSDKIHHHHHHMFPPDKTLFLCLSALLLASCGTTSGKHRQPKPKQTVRQIQAVRISHIDRTQGSQELMLHSLGLIGTPYKWGGSSTATGFDCSGMIQFVYKNALNVKLPRTARDMAAASRKIPDSRLKAGDLVFFNTGGAHRYSHVGLYIGNGEFIHAPSSGKTIKTEKLSTPFYAKNYLGAHTFFTE	not soluble
GPGSMVSTRETLSVEEQRYLDQELPPRELLTSLRSRDRSPTDDNETDVTVPGDSFGIMRNRVAFYKPVPRDVYSGELGECFPEGCHPLRCVNPATLHHLSERFGVSIREAVKAMQNAQMDINIAIDELCRRKCIDPPAGSFGLVGLESYASETFCLVNFTLPSLEATRDDDVLDALHELTLSAAEIPLDTPTEDLVDKFVNNWTVEDGRSCKDVLDMYDLGVNKIVLLPHGDYSVEGFYVLHPVKEDTPNIGTGAAACCLDLRTGIHNRFRFHVERIADSVSEHVIRELVHYGQDVHVLRQAYWFKPEYSVEEYIRFKESLLQPSASVFEMRYAVLAVGSYALPGYRNLVEMEKLKVAQHKYEKHYEDFMSPGKWLTSDNSQLQTVAAGGGNAPGAALHMHTNGPDVALNAMETRAGPLRRTLETSIQAHGDRVFSRFYRNNHH	not soluble
MEPDIEPWDRFRDWLHCICVVTFDLELGQALEVIYPGDAILSNTEKINICYLAFPDSNSSNARDTNFHFRIRRAISDVRDCQKSFVDKSPTSLPFDTHYLYGFVHFRQCKDPTIHRGYYQKSIVLMSVLPLFSLFYSVTARIAEHFFESGEAAIEAACHHIDTWQQPHAGRTIELPLLGTLISCRLPAACDLPYEFRLDGHVELSDDDSQRLVRPDFTTSIVQHVHHLPLLWELVLLGEPLLIVAPTPSITSALVQSIVGLLSPLRIVNDFRPYFTIHDSEFREYSSKSRSPPRVILGVTNPFFIKALDHWPHILKVAEQGAEIGGDDMKKPKKTWSSSRTLDTPAGLYTQYKPFLSKDKSLAKKLLRSGNSLEVQHNILQRHFLELTHSFMIPMERYLSSLMPLKKEMSPFKGIPSTRPFSMDDFLATLETNGGPSLTCGTKGDWQGLYRRFITCSNFGGWLSMRSRDVNAQLKTHYVEALCSADFCSQTLATKHNVEIVDLVLRIRERIIECPPDTEIRRNLVRQVVKILSNVDDDLKQLLMSNCSLREILA	not soluble
